Data reported in publication PMC2793005, “Dissecting the Role of Critical Residues and Substrate Preference of a Fatty Acyl-CoA Synthetase (FadD13) of Mycobacterium tuberculosis” (PLoS ONE, 2009).

Biological target: the molecule itself
Assay: native gel or EMSA

B1: FadD13 mutant A302G, N-terminal 6x histidine tagged (enzyme)
chain: MKNIGWMLRQRATVSPRLQAYVEPSTDVRMTYAQMNALANRCADVLTALGIAKGDRVALLMPNSVEFCCLFYGAAKLGAVAVPINTRLAAPEVSFILSDSGSKVVIYGAPSAPVIDAIRAQADPPGTVTDWIGADSLAERLRSAAADEPAVECGGDDNLFIMYTSGTTGHPKGVVHTHESVHSAASSWASTIDVRYRDRLLLPLPMFHVAALTTVIFSAMRGVTLISMPQFDATKVWSLIVEERVCIGGAVPAILNFMRQVPEFAELDAPDFRYFITGGAPMPEALIKIYAAKNIEVVQGYGLTESCGGGTLLLSEDALRKAGSAGRATMFTDVAVRGDDGVIREHGEGEVVIKSDILLKEYWNRPEATRDAFDNGWFRTGDIGEIDDEGYLYIKDRLKDMIISGGENVYPAEIESVIIGVPGVSEVAVIGLPDEKWGEIAAAIVVADQNEVSEQQIVEYCGTRLARYKLPKKVIFAEAIPRNPTGKILKTVLREQYSATVPK
notes: not shown: His6, N-terminal, kept
B1 was tested, and the “stoichiometry N” value was 2.

B2: FadD13 mutant D382A, N-terminal 6x histidine tagged (enzyme)
chain: MKNIGWMLRQRATVSPRLQAYVEPSTDVRMTYAQMNALANRCADVLTALGIAKGDRVALLMPNSVEFCCLFYGAAKLGAVAVPINTRLAAPEVSFILSDSGSKVVIYGAPSAPVIDAIRAQADPPGTVTDWIGADSLAERLRSAAADEPAVECGGDDNLFIMYTSGTTGHPKGVVHTHESVHSAASSWASTIDVRYRDRLLLPLPMFHVAALTTVIFSAMRGVTLISMPQFDATKVWSLIVEERVCIGGAVPAILNFMRQVPEFAELDAPDFRYFITGGAPMPEALIKIYAAKNIEVVQGYALTESCGGGTLLLSEDALRKAGSAGRATMFTDVAVRGDDGVIREHGEGEVVIKSDILLKEYWNRPEATRDAFDNGWFRTGAIGEIDDEGYLYIKDRLKDMIISGGENVYPAEIESVIIGVPGVSEVAVIGLPDEKWGEIAAAIVVADQNEVSEQQIVEYCGTRLARYKLPKKVIFAEAIPRNPTGKILKTVLREQYSATVPK
notes: as for B1
B2: binds.
